The record followed here is patent publication US20160039921A1 (published 2016).

For orientation: IC50 means the point on the concentration scale where inhibition reaches its midpoint.

The target in the test is T1, recombinant human VEGF165 protein (human, UniProt P15692 27-191).
T1 chain: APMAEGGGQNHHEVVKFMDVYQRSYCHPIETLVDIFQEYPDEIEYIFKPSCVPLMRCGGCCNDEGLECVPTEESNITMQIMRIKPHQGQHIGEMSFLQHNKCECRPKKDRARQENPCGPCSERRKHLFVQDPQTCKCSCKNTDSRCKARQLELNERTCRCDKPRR
The test is described as follows: competitive ELISA (blocking of biotin-VEGF binding to VEGFR1). For orientation: ELISA stands for enzyme-linked immunosorbent assay.

Bounds are passed on as bounds.

B1: murine PV19 monoclonal antibody (antibody, V domains shown)
VH: QPGGAFWMCVSGGKVTISCKASGYSFTNSGINWVKQAPGKGLKWMGWINTYTGEPTYADDFKGRFAFSLETSASSAYLQINNLKNEDTATYFCARFGDGYYWFFDVWGAGTTVTVS
VL: DIVMSQSPSSLAVSAGEKVTLSCKSSQSLLNSRTRKNFLAWYQQKPGQSPKLLIYWASTRESGVPDRFTGSGSGTDFTLTISSVQAEDLAVYYCKQSYNLYTFGGGPT
As to B1, the IC50 was less than 1 nM.
